For two substances, ELISA A450 results are on record in patent US20110070235A1.

The test addresses M2e. As to the kind of experiment: peptide ELISA, mAb 5 ug/mL. A general note: In an ELISA, binding on a coated surface is turned into a signal by an enzyme label.

As for TCN-031 (23K12) (antibody), the ELISA A450 was found to be 0.43.
The figure for “chimeric mouse V-region/human IgG1 kappa 14C2 antibody” is 3.98.
